Results published in publication PMC3462199, “Recombinant Adiponectin Does Not Lower Plasma Glucose in Animal Models of Type 2 Diabetes” (PLoS ONE, 2012).
Values joined by “and” are separate entries in the source; they are usually repeats but may differ in a detail not shown here. Identical values can stand only once.

T1: C39S version of full length murine adiponectin (C39S mAd) (murine), Q60994
T1 chain: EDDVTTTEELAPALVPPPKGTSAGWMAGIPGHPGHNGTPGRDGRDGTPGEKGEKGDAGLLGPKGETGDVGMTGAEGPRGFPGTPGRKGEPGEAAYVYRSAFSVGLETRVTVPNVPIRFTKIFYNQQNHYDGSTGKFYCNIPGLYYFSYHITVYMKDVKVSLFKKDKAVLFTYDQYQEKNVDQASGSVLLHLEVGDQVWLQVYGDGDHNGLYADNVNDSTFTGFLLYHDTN


Assays:
[1] = not stated; oligomeric form and share of trimer/hexamer/HMW in the purified batch as listed in Table 1; the table does not say whether from analytical SEC (Figure 1A) or AF4-MALS
[2] = target: Murine globular adiponectin (mgAd) (murine); assay: as above
[3] = target: T1, C39S version of full length murine …; assay: as above; settings: remark: other sources report otherwise
Q60994 = assay: as above
[4] = target: the molecule itself; assay: as above
Q15848 = assay: as above
[5] = target: the molecule itself; assay: AF4-MALS; purified batch; 20 mM Tris-HCl pH 7.4, 100 mM NaCl, 1 mM CaCl2; self-association, size of the oligomer

Molecule | % HMW (Q60994) [%] | % hexamer [4] [%] | % trimer [4] [%] | also measured
Murine globular adiponectin (mgAd) |  |  |  | % HMW [1]: 0%
Murine globular adiponectin (mgAd) (domain or fragment) |  |  |  | % hexamer [2]: -0%; % trimer [2]: 100%
C39S version of full length murine adiponectin (C39S mAd), Q60994 18-247 (natural protein, here or on the partner: detected proline hydroxylations at 47, 50, 56, 65, 79; detected lysine hydroxylations at 68, 71, 80, 104; detected proline hydroxylations at 47, 50, 56, 65, 79; detected lysine hydroxylations at 68, 71, 80, 104) EDDVTTTEELAPALVPPPKGTSAGWMAGIPGHPGHNGTPGRDGRDGTPGEKGEKGDAGLLGPKGETGDVGMTGAEGPRGFPGTPGRKGEPGEAAYVYRSAFSVGLETRVTVPNVPIRFTKIFYNQQNHYDGSTGKFYCNIPGLYYFSYHITVYMKDVKVSLFKKDKAVLFTYDQYQEKNVDQASGSVLLHLEVGDQVWLQVYGDGDHNGLYADNVNDSTFTGFLLYHDTN |  |  |  | % hexamer [3]: -0%; % trimer [3]: 100%; stoichiometry N [3]: 3
C39S version of full length murine adiponectin (C39S mAd) (protein) EDDVTTTEELAPALVPPPKGTSAGWMAGIPGHPGHNGTPGRDGRDGTPGEKGEKGDAGLLGPKGETGDVGMTGAEGPRGFPGTPGRKGEPGEAAYVYRSAFSVGLETRVTVPNVPIRFTKIFYNQQNHYDGSTGKFYCNIPGLYYFSYHITVYMKDVKVSLFKKDKAVLFTYDQYQEKNVDQASGSVLLHLEVGDQVWLQVYGDGDHNGLYADNVNDSTFTGFLLYHDTN | 0 |  |  | 
Full length murine adiponectin (mAd) (natural protein, UniProt Q60994 18-247, looked up, detected proline hydroxylations at 65, 79; detected lysine hydroxylations at 36, 68, 71, 80, 104, murine adiponectin; coding region amplified from a mouse spleen cDNA library; the original signal peptide was replaced by the human CD33 signal peptide and the protein was secreted; The forward primer begins with catcatcat (three His codons) followed by gcc gaa gat gac gtt (A E D D V); Batch is a mixture of trimer and hexamer) EDDVTTTEELAPALVPPPKGTCAGWMAGIPGHPGHNGTPGRDGRDGTPGEKGEKGDAGLLGPKGETGDVGMTGAEGPRGFPGTPGRKGEPGEAAYVYRSAFSVGLETRVTVPNVPIRFTKIFYNQQNHYDGSTGKFYCNIPGLYYFSYHITVYMKDVKVSLFKKDKAVLFTYDQYQEKNVDQASGSVLLHLEVGDQVWLQVYGDGDHNGLYADNVNDSTFTGFLLYHDTN |  | 53 | 46 | stoichiometry N [4]: 3 and 6
Full length murine adiponectin (mAd) (protein) EDDVTTTEELAPALVPPPKGTCAGWMAGIPGHPGHNGTPGRDGRDGTPGEKGEKGDAGLLGPKGETGDVGMTGAEGPRGFPGTPGRKGEPGEAAYVYRSAFSVGLETRVTVPNVPIRFTKIFYNQQNHYDGSTGKFYCNIPGLYYFSYHITVYMKDVKVSLFKKDKAVLFTYDQYQEKNVDQASGSVLLHLEVGDQVWLQVYGDGDHNGLYADNVNDSTFTGFLLYHDTN | 1 |  |  | 
Full length human adiponectin (hAd), high molecular weight form (protein) ETTTQGPGVLLPLPKGACTGWMAGIPGHPGHNGAPGRDGRDGTPGEKGEKGDPGLIGPKGDIGETGVPGAEGPRGFPGIQGRKGEPGEGAYVYRSAFSVGLETYVTIPNMPIRFTKIFYNQQNHYDGSTGKFHCNIPGLYYFAYHITVYMKDVKVSLFKKDKAMLFTYDQYQENNVDQASGSVLLHLEVGDQVWLQVYGEGERNGLYADNDNDSTFTGFLLYHDTN |  |  |  | % HMW (Q15848): 98%
Full length human adiponectin (hAd), high molecular weight form (natural protein, UniProt Q15848 19-244, looked up, detected proline hydroxylations at 71, 76, 95; detected lysine hydroxylations at 33, 65, 68, 77, 101 (glycosylated hydroxylysyl), human adiponectin; coding region amplified from Human Adipocyte Marathon Ready cDNA; the original signal peptide was replaced by the human CD33 signal peptide and the protein was secreted; also called HMW hAd; HMW adiponectin; source: HMW form isolated; copies: 18) ETTTQGPGVLLPLPKGACTGWMAGIPGHPGHNGAPGRDGRDGTPGEKGEKGDPGLIGPKGDIGETGVPGAEGPRGFPGIQGRKGEPGEGAYVYRSAFSVGLETYVTIPNMPIRFTKIFYNQQNHYDGSTGKFHCNIPGLYYFAYHITVYMKDVKVSLFKKDKAMLFTYDQYQENNVDQASGSVLLHLEVGDQVWLQVYGEGERNGLYADNDNDSTFTGFLLYHDTN |  | 2 | 0 | stoichiometry N [5]: 18
Mouse globular adiponectin with an amino terminal FlagTag (FLAG-mgAd) (domain or fragment, murine, UniProt Q60994 109-247, looked up, N233Q to prevent N-glycosylation; the methods mention only N233Q; Total mass printed: 17054 Da; also called FLAG tagged mouse globular adiponectin; source: S. cerevisiae ME1719, supernatant, purified (Q Sepharose FF, Superdex 200)) EAAYMYRSAFSVGLETRVTVPNVPIRFTKIFYNQQNHYDGSTGKFYCNIPGLYYFSYHITVYMKDVKVSLFKKDKAVLFTYDQYQEKNVDQASGSVLLHLEVGDQVWLQVYGDGDHNGLYADNVQDSTFTGFLLYHDTN | 0 | 15 | 85 | 
